# Test results taken from publication PMC10693965.
# Substrate: C[N+](C)(C)CCO
# Experiment: cells, lysate or membranes
# Assay type: cell-based, Clonorchis sinensis
# Details: ND96 (96 mM Na+), pH 7.4, 22–25°C, sodium-dependent, labelled compound
protein,measurement,value
CsChT (Clonorchis sinensis) (protein) MLYIPGLIAIIIFYLLILLVGFWAARKSRSNPAGTTETEDVMLAGRNIGLIVGIFTMTATWVGGGYINGTAENTFRPGQGLVWCQAPIGYAASLVLGGFFFAKRMRSLAFVTMLDPFQNKYGERMCGLLFIPALLGETFWSAAILSALGATLGVIVELDHTTSVIISACIALLYTLFGGLYSVAYTDVVQLFCIFVGLWISLPFALLNKATVPISQTWDRWKGSVEAVDAGIYVDNLLMLTFGGIPWQVYFQRVLSCRTAKQAQILSFVAAIGCLIMALPSVLIGAVGASTDWNMTGYGRAENFTIPDGEAKLVLPLVLRYLCPVWVSFVGLGAVSAAVMSSSDSSVLSAASMFARNVVKPVFWQSATERQIIWVMRASIFGVGALSCLLAICIQSIYGLWYLCSDLIYVILFPQLICVLYVRFSNTYGSLIGYILGLFVRLTSGEALLGLPALFKYPYFYDDPQDFYQRFPCKTFAMLCTLVVTIVVSYFTDLYFRKDSKRLKYDFFHCYKQRASASGSIHIGNRFNRPSIRTAKLPIQVPEVDSENADVDENSNKNSNTLDNNKPLA,Km,8.3 µM
